Measurements as given in the nanobody polyreactivity screen of Harvey et al. (2022).

Assay: yeast display, Sf9 membrane polyspecificity reagent, FACS + sequencing; frameworks hold sequencing errors
How it was run: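 After 36–48 hours of galactose induction, yeast (Saccharomyces cerevisiae BJ5465) displaying a synthetic nanobody library were stained at 4 °C for 1 hour with 10% biotinylated, detergent-solubilized Sf9 membrane reagent. Streptavidin microbeads enriched the stained cells before FACS sorting into low and high (top ~1%) gates on anti-HA and streptavidin fluorescence. Each clone's polyreactivity label reflects its gate of origin.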

Row | Sequence | polyreactivity (PSR sort gate)
1 | QVQLVESGGGLVQAGGSLRLSCAASGRTFAWYAMGWYRQAPGKERELVAAITTRGSGTYYADSVKGRFTISRDNAKNTVYLQMNSLKPEDTAVYYCAKDPITATTLDERVFYWGQGTQVTVSS | low polyreactivity
2 | QVQLVESGGGLVQAGGSLRLSCAASGRTFAWYTMGWYRQAPGKERELVASITKRGGRTYYADSVKGRFTISRDNAKNTVYLQMNSLKPEDTAVYYCAAGASQGRGTVTFDYWGQGTQVTVSS | high polyreactivity
3 | QVQLVESGGGLVQAGGSLRLSCAASGRTFAYNAMGWYRQAPGKDRELVAAITRRGGSTYYADSVKGRFTISRDNAKNTVYLQMNSLKPEDTAVYDCAKVLGGLPHGEVLDEYDYWGQGTQVTVSS | low polyreactivity
4 | QVQLVESGGGLVQAGGSLRLSCAASGRTFAYNAMGWYRQAPGKERELVADITWSGDSTYYADSVKGRFTISRDNAKNTVYLQMNSLKPEDTAVYYCAADYFGGPSYEFDYWGQGTQVTVSS | low polyreactivity
5 | QVQLVESGGGLVQAGGSLRLSCAASGRTFAYTDMGWYRQAPGNERELVAAISWSDGTTYYADSVKGRFTISRDNAKNTVYLQMNSLKPEDTAVYYCAAESYPSEVASYVSEYDYWGQGTQVTVSA | low polyreactivity
6 | QVQLVESGGGLVQAGGSLRLSCAASGRTFAYYAMGWYRQAPGTERELVAGITYSGGRTYYADSVKGRFTISRDNAKNTVYLQMNSLKPEDTAVYYCATRWPSKPTSRAMYYWGQGTQVTVSS | high polyreactivity
7 | QVQLVESGGGLVQAGGSLRLSCAASGRTFDAYAMGRYRQAPGKERELVARITSGGSTKYADSVKGRFTISRDNAKNTVYLQMNSLKPEDTAVYYCAAAQYWPSFFSNRVYYRNDYWGQGTQVTVSS | high polyreactivity
8 | QVQLVESGGGLVQAGGSLRLSCAASGRTFDAYAMGWYRQAPGKERELVAAISSGGSTNYADSVKGRFTISRDHAKNTVYLQKNSLKPEDTAVYYCAAEYIQYLFYSVRVAYDYWGQGTQVTVSS | low polyreactivity
9 | QVQLVESGGGLVQAGGSLRLSCAASGRTFDAYAMGWYRQAPGKERELVATITSGGGTYYADSVKGRFTISRDNAKNTVYLQMNSLKPEDTAVYYCNISYVVSRKYDYWGQGTQVTVSS | low polyreactivity
10 | QVQLVESGGGLVQAGGSLRLSCAASGRTFDDNAMGWYRPAPGKARELVAAISTTGSTNYADSVKGRFTISRDNAQTTVYLQMNSLKPEDTAFYYCAADSTPYVRSGNYDYWGQGTQVTVSS | low polyreactivity
11 | QVQLVESGGGLVQAGGSLRLSCAASGRTFDDNAMGWYRQAPGKERELVAAINFTGGSTYYADSVKGRFTISRDNAQNTVSLQMNSLKPEDTAVYYCAVRPGYYCGYWPRFGYWGQGSQVTVSS | low polyreactivity
12 | QVQLVESGGGLVQAGGSLRLSCAASGRTFDDYPMGWYRQAPGKDSELVAAITRRGGSTYYADSVKGRFTISRDNAKNTVYLQMNSLNPEDTAVYYCAADLFFKARGYDYWGQGTQVTVST | high polyreactivity
13 | QVQLVESGGGLVQAGGSLRLSCAASGRTFDGYAMGWYRPAPGKERELVAAISWGGGSTYYADSVKGRFTISRDNAKNTVYLQMNSLKPEDTAVYYCNAYTYYYGNDYWGQGTQVNVSS | high polyreactivity
14 | QVQLVESGGGLVQAGGSLRLSCAASGRTFDHNAMGWYRQAPGKERELVAAINSSGGRTYYADSVKGRFTISRDNAQNTVYLQMNSLQPEDTAVYYCATVNVRGPPYDYWGQGTQVTVSS | high polyreactivity
15 | QVQLVESGGGLVQAGGSLRLSCAASGRTFDIYAMGWYRQAPGKARELVAAISIAGSTNYADSVKGRFTISRDNAKNTVYLQMNSLKPEDTAVYYCAAAKPKKSRGSAYEYWGQGTLVTVSS | high polyreactivity
16 | QVQLVESGGGLVQAGGSLRLSCAASGRTFDKYAMGWYRQAPGKERELVAAITRSGGSTYYADSVKGRFTISRDNAKNTVYLQMNSLKPEDTAVYYCAKRYWSYRWKYDYWGQGTQVTVSS | high polyreactivity
